Test results as given in the nanobody polyreactivity screen of Harvey et al. (2022).

Experiment: yeast display, Sf9 membrane polyspecificity reagent, FACS + sequencing; frameworks hold sequencing errors
How it was run: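 Sorting gates, low and high (top ~1%), were placed on anti-HA fluorescence to track expression and on streptavidin fluorescence to track reagent binding. A clone's polyreactivity label is taken from the gate it came out of. The reagent was 10% biotinylated, detergent-solubilized Sf9 membrane, applied for 1 hour at 4 °C to galactose-induced yeast display cells.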

| Sequence | polyreactivity (PSR sort gate) |
| --- | --- |
| QVQLVESGGGLVQAGGSLRLSCAASGIIFSWYAMGWYRQAPGKERELVATISSGAHTYYADSVKGRFTISRDNAKNTVYLQMNSLKPEDTAVYYCATTSYGYWFGYIPEVDYWGQGTQVTVSS | low polyreactivity |
| QVQLVESGGGLVQAGGSLRLSCAASGIIFSYYAMGCYRQAPGKERELVAAISWSGGSTYYADSVKGRFTISRDNAKNTVYLQMNSLKPEDTAVYYCAADDYLAYVYWGQGTQVTVSS | high polyreactivity |
| QVQLVESGGGLVQAGGSLRLSCAASGIIFSYYAMGWYRQAPGKERELVAAISRSGARTSYADSVKGRFTISRDNAKNTVYLQMNSLKPEDTAVYYCAARTQGTRYRGEYWGQGTQVTVSS | high polyreactivity |
| QVQLVESGGGLVQAGGSLRLSCAASGIIFSYYAMGWYRQAPGKERELVAAITYSGGSTYYADSVKGRFTISRDNAKNTVYLQMNSLKPEDTAVYYCDAEDYYYYSWYEYSYYYWGQGTQVTVSS | high polyreactivity |
| QVQLVESGGGLVQAGGSLRLSCAASGIIFTGNAMGWYRQAPGKERELVAGITGSGGNTYYADSVKGRFTISRDNAKNTVYLQMNSLKPEDTAVYYCAARRHIFLLIIWSGRVDYWGQGTQVTVSS | low polyreactivity |
| QVQLVESGGGLVQAGGSLRLSCAASGIIFTQNGMGWYRQAPGKERELVAAISWSAGGTYYADSVKGRFTISRYNAKNTVLLQMNSLKPEDTAVYYCNARVFNVFREFNSWGQGTQVTVSS | low polyreactivity |
| QVQLVESGGGLVQAGGSLRLSCAASGIIFTRYVMGWYRQAPRKERELVAAISWSGGRTYYADSVKGRFTISRDNAKNTVYLQMNSLKPEDTAVYYCAAGIYQHAGGDYWGQGTQVTVSS | high polyreactivity |
| QVQLVESGGGLVQAGGSLRLSCAASGIIFTVYDMGWYRQPPGKERELVAAITWSGGSTYYADSVKGRFTISRDNAKNTVYLQMNSLKPEDTAVYYCIKVGRVWDVETDGDYDYWGQGTQVTVSS | low polyreactivity |
| QVQLVESGGGLVQAGGSLRLSCAASGIIFTYYDMGWYRQAPGKERELVAGIDYSGTSTYYADSVKGRFTISRDNAKNTVYLQMNSLKPEDTAVYYCAAVPVWGGYFAGEYYYWGQGTQVTVSS | high polyreactivity |
| QVQLVESGGGLVQAGGSLRLSCAASGIIFVKYARGWSRQAPGKERELVAAITSGGSTYYADSVKGRFTISRDNAKNTVYLQTNSLKPEDTAVYYCNARRNQYLAQYDYWGQGTQVTVSS | high polyreactivity |
| QVQLVESGGGLVQAGGSLRLSCAASGIIFVRYTMGWYRQAPGKERELVAAISSSGGSTYYADSVKGRFTISRDNAKNTVYLQLNSLKPEDTAVYYCIAEIRDNNVGYDTDYDYWGQGSQVTVSS | high polyreactivity |
| QVQLVESGGGLVQAGGSLRLSCAASGIIFWHYAMGMYRQAPGKERELVADISRRGGSTYYADSVKGRFTISRDNAKNTVYLQINSLKPEDNAVYYCAARYHPGGYDSWGQGTQVTVSS | low polyreactivity |
| QVQLVESGGGLVQAGGSLRLSCAASGIIFWLYTMGWYRQAPGKERELVAAITSGGSTYYAESVKGRFTISRDNAKNTVYLQMNSLKPEDTAVYYCAAVSRAPGLRYDYWGQGTQVTVSS | high polyreactivity |
| QVQLVESGGGLVQAGGSLRLSCAASGIIFWRYAMGWYRQAPGKERELVASISSSGGRTYYADSVKGRFTISRDNAKNTVYLQMNSLKPEDTAVYYCAARGPYGYDLLYYWGQGTQVTVSS | high polyreactivity |
| QVQLVESGGGLVQAGGSLRLSCAASGIIFWYYAMGWYIQAPGKERELVAAFSSGGSTTYADSVKGRFTISRDNAKNTVYLQINSLKPEDTAVYYCAASVRGIRYDYWGQGTQVTVSS | low polyreactivity |
| QVQLVESGGGLVQAGGSLRLSCAASGIIFWYYAMGWYRQAPGKERELVAAISRGGTTYYADSVKGRFTISRDNAKNTVYLQMNSLKPEDTAVYYCAAGVRYRLTRYFYPDFDYWGQGTQVTVSS | high polyreactivity |
| QVQLVESGGGLVQAGGSLRLSCAASGIIFYAYAMGWYRQAPGKETELVAAITFSAVSTNYADSVKGRFTISRDYAKNTVYLQMNSLKPEDTAVYYCAAEAYKHGVWDYDYWGQGTQVTVSS | low polyreactivity |
